The target of this series is mouse NF-YA minimal domain;mouse NF-YB HFD;mouse NF-YC HFD (mouse;mouse;mouse, UniProt P23708-2;P63139;P70353 233-303;49-141;27-120, ||). Put plainly: agarose EMSA; positive control; 32P EMSA: 20 mM Hepes pH 7.9, 50 mM NaCl, 5% glycerol, 5 mM MgCl2, 5 mM b-ME, 20 C; Cy5 agarose EMSA: 20 nM DNA, 20 mM Tris pH 7.5, 50 mM NaCl, 0.5 mM EDTA, 5 mM MgCl2, 2.5 mM DTT, 0.1 mg/ml BSA, 5% glycerol, 23 C. The settings on record: protein: recombinant;recombinant;recombinant; tags: C-terminal His cleaved by thrombin;6His in dimer; untagged in purified trimer;; copies: 1;1;1; label: 5'-Cy5; blunt.

Experimental findings from publication PMC3422339, “Interactions and CCAAT-Binding of Arabidopsis thaliana NF-Y Subunits” are described below.

Chain of mouse NF-YA minimal domain;mouse NF-YB HFD;mouse NF-YC HFD (P23708 261-331, chain 1 of 3): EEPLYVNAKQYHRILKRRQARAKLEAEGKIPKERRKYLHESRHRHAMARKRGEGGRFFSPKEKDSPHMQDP
Chain of mouse NF-YA minimal domain;mouse NF-YB HFD;mouse NF-YC HFD (P63139 49-141, chain 2 of 3): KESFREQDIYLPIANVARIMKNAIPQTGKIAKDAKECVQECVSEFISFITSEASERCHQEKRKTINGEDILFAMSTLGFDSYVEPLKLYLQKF
Chain of mouse NF-YA minimal domain;mouse NF-YB HFD;mouse NF-YC HFD (P70353 27-120, chain 3 of 3): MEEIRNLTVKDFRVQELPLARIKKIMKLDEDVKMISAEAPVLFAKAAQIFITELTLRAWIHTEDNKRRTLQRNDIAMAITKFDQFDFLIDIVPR

B1: HSP70 CCAAT 31 bp probe (dsDNA)
DNA 1: CTTCTGAGCCAATCACCGAGCTCGATGAGGC
DNA 2: GCCTCATCGAGCTCGGTGATTGGCTCAGAAG
Take B1: the binding result is “binds”.
